Tests used:
His80 = His80 (UniProt position 80, NVSGAHLNPAF); experiment: kinetics (stopped-flow fluorescence transport assay in intact yeast cells); conditions: 23 °C; not stated (50 mM K-citrate buffer); 50 mM K-citrate with 1.4 M sorbitol; osmotic shock with 2.1 M glycerol in 50 mM K-citrate; Channel in the yeast plasma membrane, glycerol gradient applied; pH-gated closed (high pH) to open (low pH) transition
[1] = target: the molecule itself; experiment: crystal structure; hanging-drop vapor diffusion at 18 °C, 100 mM MES-NaOH pH 6.0, 19 % PEG 2k MME, 5 % glycerol; entire tetramer in the asymmetric unit; 2.3 Å

## Aquaporin-10 (hAQP10), full length (Homo sapiens)
His80
  pKa: 5.92 ± 0.20

## Aquaporin-10 crystallisation construct (hAQP10cryst) (Homo sapiens; del1-10;del278-301)
His80
  pKa: 6.00 ± 0.13

B1: human aquaporin 10, crystallized variant hAQP10_(cryst) (domain or fragment, UniProt Q96PS8 11-277, looked up)
chain: MGHLRIRSLLARQCLAEFLGVFVLMLLTQGAVAQAVTSGETKGNFFTMFLAGSLAVTIAIYVGGNVSGAHLNPAFSLAMCIVGRLPWVKLPIYILVQLLSAFCASGATYVLYHDALQNYTGGNLTVTGPKETASIFATYPAPYLSLNNGFLDQVLGTGMLIVGLLAILDRRNKGVPAGLEPVVVGMLILALGLSMGANCGIPLNPARDLGPRLFTYVAGWGPEVFSAGNGWWWVPVVAPLVGATVGTATYQLLVALHHPEGPEPAQD
notes: human aquaglyceroporin AQP10, truncated in the termini (Δ1–10, Δ278–301): the first 10 and the last 24 amino acids removed; codon-optimized cDNA; His8 stretch fused directly to the C-terminus with no protease site; also called human AQP10; source: S. cerevisiae PAP1500, purified (IMAC, SEC); not shown: His8, C-terminal, kept
[1]
  stoichiometry N: 4

From publication PMC6232157, “Human adipose glycerol flux is regulated by a pH gate in AQP10” (Nature Communications, 2018)
